Laboratory results as given in patent publication US20160168251A1 (MorphoSys, published 2016).

Key:
[1] = biological target: T1, human NPRB on HEK293 cells, without added ligand (human, UniProt P20594 23-1047); assay: FACS, HEK NPRB cells without ligand
T1 construct: whole, on cells; also called HEK NPRB cells; natriuretic peptide receptor B
T1 sequence (looked up): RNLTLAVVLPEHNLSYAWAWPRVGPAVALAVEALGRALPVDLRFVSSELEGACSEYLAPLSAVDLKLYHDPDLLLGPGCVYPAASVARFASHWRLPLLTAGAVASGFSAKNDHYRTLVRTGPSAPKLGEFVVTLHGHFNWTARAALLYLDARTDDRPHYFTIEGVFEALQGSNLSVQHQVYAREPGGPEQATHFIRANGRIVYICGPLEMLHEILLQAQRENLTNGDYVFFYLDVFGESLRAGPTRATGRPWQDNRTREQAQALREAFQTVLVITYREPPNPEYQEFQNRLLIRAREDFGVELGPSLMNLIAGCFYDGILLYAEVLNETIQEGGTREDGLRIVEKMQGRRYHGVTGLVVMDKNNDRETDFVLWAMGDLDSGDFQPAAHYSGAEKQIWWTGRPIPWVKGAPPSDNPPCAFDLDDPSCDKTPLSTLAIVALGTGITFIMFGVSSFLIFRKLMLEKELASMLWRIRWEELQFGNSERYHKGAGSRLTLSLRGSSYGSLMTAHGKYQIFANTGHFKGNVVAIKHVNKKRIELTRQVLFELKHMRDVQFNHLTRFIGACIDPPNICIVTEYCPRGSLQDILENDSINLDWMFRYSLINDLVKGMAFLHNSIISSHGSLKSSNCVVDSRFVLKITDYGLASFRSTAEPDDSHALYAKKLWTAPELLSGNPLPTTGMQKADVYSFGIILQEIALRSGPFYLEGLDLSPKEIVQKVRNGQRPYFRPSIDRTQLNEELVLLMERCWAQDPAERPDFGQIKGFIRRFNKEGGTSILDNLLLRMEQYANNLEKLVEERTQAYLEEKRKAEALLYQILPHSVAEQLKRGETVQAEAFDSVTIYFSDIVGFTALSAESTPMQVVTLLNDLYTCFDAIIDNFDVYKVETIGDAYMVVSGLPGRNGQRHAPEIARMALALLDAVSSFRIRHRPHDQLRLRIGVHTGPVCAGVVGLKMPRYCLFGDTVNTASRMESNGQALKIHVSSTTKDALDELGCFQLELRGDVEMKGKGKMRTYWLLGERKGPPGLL
Experimental: HEK NPRA cells are detached with Accutase (PAA Laboratories GmbH, Cat. No. L11-007, Austria), harvested by centrifugation (900 rpm, 4 minutes) and resuspended in FACS buffer (PBS/3% FCS/0.02% NaN3) to a final concentration of 10⁶ cells/ml. 100 μl of the cell suspension is transferred to each well of a 96 round bottom plate (TC Microwell 96U, Nunc). […] Cells are washed in 150 μl of FACS buffer, pelleted and resuspended in 50 μl of the solution containing the primary antibody comprising a BEL extract of Fabs, a diluted BEL extract or purified antibody diluted in FACS buffer and incubated on ice for 30 min. Cells are washed again in FACS buffer and resuspended in 50 μl of FACS buffer containing the secondary antibody (R-Phycoerythrin-conjugated Affipure F(ab′)₂ Fragment Goat Anti-Human IgG, Dianova) and incubated on ice for 45 min. Cells are washed twice with FACS buffer and resuspended in 200 μl of FACS buffer for analysis in the FACS Array (BD Biosciences).

[2] = biological target: canine NPRA on HEK cells bound to ANP (canine, UniProt A0A8I3MHU3 32-1060); assay: KinExA whole cell binding (Kd,app), HEK cells with canine NPRA, ANP bound
[3] = biological target: T2, human NPRA on HEK293 cells bound to ANP (human, UniProt P01160 124-151); assay: KinExA whole cell binding (Kd,app), HEK cells with human NPRA, ANP bound, 75 and 200 pM IgG
T2 construct: mature; Receptor-ligand complex on cells; also called HEK NPRA cells loaded with ANP; ANP-NPRA complex
T2 sequence: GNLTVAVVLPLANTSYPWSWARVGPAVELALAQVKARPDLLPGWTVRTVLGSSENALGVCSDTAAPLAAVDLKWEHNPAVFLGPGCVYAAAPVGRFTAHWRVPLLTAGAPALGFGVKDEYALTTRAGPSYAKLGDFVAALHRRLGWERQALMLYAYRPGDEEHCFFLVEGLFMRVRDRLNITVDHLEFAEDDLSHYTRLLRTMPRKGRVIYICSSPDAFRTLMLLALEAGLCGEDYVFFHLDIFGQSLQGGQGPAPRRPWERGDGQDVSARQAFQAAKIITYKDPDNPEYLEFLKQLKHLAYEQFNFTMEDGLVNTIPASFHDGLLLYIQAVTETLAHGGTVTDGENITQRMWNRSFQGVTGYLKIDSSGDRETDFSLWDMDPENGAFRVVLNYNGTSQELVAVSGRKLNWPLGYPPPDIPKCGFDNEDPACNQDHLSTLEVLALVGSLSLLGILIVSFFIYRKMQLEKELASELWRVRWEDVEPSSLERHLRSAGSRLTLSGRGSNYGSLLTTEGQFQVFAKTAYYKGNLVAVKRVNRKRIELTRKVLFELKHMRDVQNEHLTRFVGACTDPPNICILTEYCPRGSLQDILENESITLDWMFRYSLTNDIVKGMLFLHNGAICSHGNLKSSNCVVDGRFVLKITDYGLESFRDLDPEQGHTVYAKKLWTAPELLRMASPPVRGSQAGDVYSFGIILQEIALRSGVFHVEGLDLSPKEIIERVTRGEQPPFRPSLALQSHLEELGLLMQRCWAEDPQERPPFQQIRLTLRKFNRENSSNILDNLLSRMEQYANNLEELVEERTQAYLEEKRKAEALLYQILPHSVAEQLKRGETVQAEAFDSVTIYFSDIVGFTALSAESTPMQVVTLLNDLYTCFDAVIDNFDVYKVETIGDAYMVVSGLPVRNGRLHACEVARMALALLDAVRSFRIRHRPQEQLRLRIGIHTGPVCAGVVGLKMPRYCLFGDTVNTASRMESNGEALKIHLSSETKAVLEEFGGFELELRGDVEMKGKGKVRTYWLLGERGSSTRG
T2 sequence (peptide): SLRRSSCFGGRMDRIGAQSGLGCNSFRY
Experimental: Initial species cross-reactivity studies are performed using HEK cell lines overexpressing rat, canine and rhesus monkey NPRA. […] These apparent Kd values are obtained by globally fitting the data for two antibody concentrations.

canine NPRA on HEK cells bound to ANP, sequence (A0A8I3MHU3 entry or part of it): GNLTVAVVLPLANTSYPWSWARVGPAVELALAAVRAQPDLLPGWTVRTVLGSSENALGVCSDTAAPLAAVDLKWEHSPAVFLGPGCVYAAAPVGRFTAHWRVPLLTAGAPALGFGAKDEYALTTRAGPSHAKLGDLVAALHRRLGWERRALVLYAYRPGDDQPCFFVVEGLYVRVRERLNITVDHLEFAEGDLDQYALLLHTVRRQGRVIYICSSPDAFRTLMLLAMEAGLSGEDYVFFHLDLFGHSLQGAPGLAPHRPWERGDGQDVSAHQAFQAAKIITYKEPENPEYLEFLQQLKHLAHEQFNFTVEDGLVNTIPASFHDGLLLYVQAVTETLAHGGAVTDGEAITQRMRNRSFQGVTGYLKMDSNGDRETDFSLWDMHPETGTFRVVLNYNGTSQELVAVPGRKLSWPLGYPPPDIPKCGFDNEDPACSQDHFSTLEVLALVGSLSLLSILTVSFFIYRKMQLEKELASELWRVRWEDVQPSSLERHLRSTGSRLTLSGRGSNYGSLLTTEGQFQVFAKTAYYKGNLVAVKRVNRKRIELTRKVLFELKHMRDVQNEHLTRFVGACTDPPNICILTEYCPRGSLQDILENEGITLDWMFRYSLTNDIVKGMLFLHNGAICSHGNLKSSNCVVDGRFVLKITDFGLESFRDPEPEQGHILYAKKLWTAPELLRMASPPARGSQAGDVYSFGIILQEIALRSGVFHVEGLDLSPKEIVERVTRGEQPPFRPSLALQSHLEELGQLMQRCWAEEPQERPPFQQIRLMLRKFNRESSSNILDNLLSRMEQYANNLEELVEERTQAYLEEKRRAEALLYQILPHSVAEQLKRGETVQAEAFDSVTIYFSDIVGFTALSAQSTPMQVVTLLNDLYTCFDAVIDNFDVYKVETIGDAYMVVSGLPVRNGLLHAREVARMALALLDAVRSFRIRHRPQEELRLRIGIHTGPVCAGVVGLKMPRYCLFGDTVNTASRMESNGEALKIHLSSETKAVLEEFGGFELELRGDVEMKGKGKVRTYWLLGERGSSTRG

| Binder | binding result [1] | Kd [2] [nM] | Kd [3] [nM] |
| --- | --- | --- | --- |
| 5502 IgG4_Pro (antibody, V domains shown, Human IgG4_Pro) VH: QVQLQQSGPGLVKPSQTLSLTCAISGDSVSSRSASWSWIRQSPGRGLEWLGRIYYRSKWYNDYAVSVKSRITINPDTSKNQFSLQLNSVTPEDTAVYYCARMDVPSFRYFDVWGQGTLVTVSS VL: not shown | no binding (tested: 20 nM) |  |  |
| 5591 IgG4_Pro (antibody, V domains shown) VH: QVQLQQSGPGLVKPSQTLSLTCAISGDSVSSRSASWSWIRQSPGRGLEWLGRTYYRSHWYYEYAQSVKSRITINPDTSKNQFSLQLNSVTPEDTAVYYCARMDVPSFRYFDVWGQGTLVTVSS VL: not shown |  | 0.096 | 0.59 |
